“And” between values parts separate entries of the source, which are not always exact repeats. Equal entries are not always repeated.

The Tm is the temperature at the midpoint of the melting transition.

For the data set the following is noted: whole UniProt chain shown; for denaturant m value / denaturant midpoint (higher = more stable) / unfolding free energy: 25 °C, reversible: yes.
Where [1] appears, read: Lithobates pipiens, pH 6, GdnHCl, DSC, MES 100 mM.
Where [2] appears, read: Halobacterium salinarum (strain ATCC 700922 / JCM 11081 / NRC-1), pH 6.5, Thermal, DSC, None, reversible: no.
Setting [3] is: Halobacterium salinarum (strain ATCC 700922 / JCM 11081 / NRC-1), pH 7, Thermal, DSC, Potassium phosphate 3 mM, KCl 150 mM, reversible: no.
The mark [4] stands for this setting: Homo sapiens, pH 7.4, Urea, CD, transition: 2.
The mark [5] stands for this setting: Homo sapiens, pH 7.4, Urea, absorbance, transition: 2.
Where [6] appears, read: Homo sapiens, pH 7.4, Urea, fluorescence, transition: 2.

B1: wild type, Q2YD82 (protein)
chain: MDCAEGRAANLPCNHSTISGNEYVYWYRQIHSQGPQYIIHGLKNNETNEMASLIITEDRKSSTLILPHATLRDTAVYYCIVYDYGQNFVFGPGTRLSVLPYIQNPDPAVYQLRDSKSSDKSVCLFTDFDSQTNVSQSKDSDVYITDKTVLDMRSMDFKSNSAVAWSNKSDFACANAFNNSIIPEDTFFPSPESSCDVKLVEKSFETDTNLNFQNLSVIGFRILLLKVAGFNLLMTLRLWSS
With B1, where the note is “Homo sapiens, Thermal, fluorescence”, the Tm is 54.9 °C and 53.3 °C.

B2: wild type, Q96HL2 (protein)
chain: MTKLRAQQCRFWTSFFPKVLEMTGNIDEAEWEWKAGFHRWNNYMMDWKNQFNDYTSKKESCVGL
With B2, the Tm (Homo sapiens, pH 8, Thermal, DSC, sodium phosphate 50 mM) came out at 62.8 °C.

B3: Protein P-30 wild type, P22069 (protein)
chain: QDWLTFQKKHITNTRDVDCDNIMSTNLFHCKDKNTFIYSRPEPVKAICKGIIASKNVLTTSEFYLSDCNVTSRPCKYKLKKSTNKFCVTCENQAPVHFVGVGSC
In the case of B3, under setting [1], the denaturant m value stood at 3.08 kcal/mol/M, the “denaturant midpoint (higher = more stable)” value amounted to 4.5 M and the unfolding free energy amounted to 13.9 kcal/mol.

B4: Persulfide dioxygenase ETHE1, mitochondrial wild type, O95571 (protein)
chain: MAEAVLRVARRQLSQRGGSGAPILLRQMFEPVSCTFTYLLGDRESREAVLIDPVLETAPRDAQLIKELGLRLLYAVNTHCHADHITGSGLLRSLLPGCQSVISRLSGAQADLHIEDGDSIRFGRFALETRASPGHTPGCVTFVLNDHSMAFTGDALLIRGCGRTDFQQGCAKTLYHSVHEKIFTLPGDCLIYPAHDYHGFTVSTVEEERTLNPRLTLSCEEFVKIMGNLNLPKPQQIDFAVPANMRCGVQTPTA
On to B4, for which the midpoint of thermal melting (Tm) (Homo sapiens, pH 7.5, Thermal, CD, Tris-HCl 50mM, NaCl 150mM, transition: 2) worked out at 62 °C.

B5: Bacteriorhodopsin wild type, P02945 (protein)
chain: MLELLPTAVEGVSQAQITGRPEWIWLALGTALMGLGTLYFLVKGMGVSDPDAKKFYAITTLVPAIAFTMYLSMLLGYGLTMVPFGGEQNPIYWARYADWLFTTPLLLLDLALLVDADQGTILALVGADGIMIGTGLVGALTKVYSYRFVWWAISTAAMLYILYVLFFGFTSKAESMRPEVASTFKVLRNVTVVLWSAYPVVWLIGSEGAGIVPLNIETLLFMVLDVSAKVGFGLILLRSRAIFGEAEAPEPSAGDGAAATSD
B5: the midpoint of thermal melting (Tm) is 96 °C under setting [2]; 85 °C under setting [3]; 95.1 °C (Halobacterium salinarum (strain ATCC 700922 / JCM 11081 / NRC-1), pH 7.5, Thermal, DSC, phosphate 190 mM, reversible: no); 79 °C (Halobacterium salinarum (strain ATCC 700922 / JCM 11081 / NRC-1), pH 7.9, Thermal, CD, glycylglycine 50 mM, NaCl 100 mM, reversible: no); 81 °C (Halobacterium salinarum (strain ATCC 700922 / JCM 11081 / NRC-1), pH 9.5, Thermal, DSC, carbonate 50 mM, NaCl 100 mM, reversible: no). The “unfolding enthalpy (calorimetric)” value is, setting by setting: under setting [2], 83.7 kcal/mol; under setting [3], 23 kcal/mol. Also, the “unfolding enthalpy (van 't Hoff)” value under setting [3] was determined as 76 kcal/mol.

B6: Peroxiredoxin-6 wild type, P30041 (protein)
chain: MPGGLLLGDVAPNFEANTTVGRIRFHDFLGDSWGILFSHPRDFTPVCTTELGRAAKLAPEFAKRNVKLIALSIDSVEDHLAWSKDINAYNCEEPTEKLPFPIIDDRNRELAILLGMLDPAEKDEKGMPVTARVVFVFGPDKKLKLSILYPATTGRNFDEILRVVISLQLTAEKRVATPVDWKDGDSVMVLPTIPEEEAKKLFPKGVFTKELPSGKKYLRYTPQP
In the case of B6, the denaturant m value by setting is: under setting [4], 1.02 kcal/mol/M; under setting [5], 1.03 kcal/mol/M; under setting [6], 1.04 kcal/mol/M. The “denaturant midpoint (higher = more stable)” value by setting is: under setting [4], 3.02 M; under setting [5], 2.71 M; under setting [6], 2.74 M. The unfolding free energy by setting is: under setting [4], 3.17 kcal/mol; under setting [5], 2.82 kcal/mol; under setting [6], 2.88 kcal/mol.

B7: Subtilisin Savinase wild type, P29600 (protein)
chain: AQSVPWGISRVQAPAAHNRGLTGSGVKVAVLDTGISTHPDLNIRGGASFVPGEPSTQDGNGHGTHVAGTIAALNNSIGVLGVAPSAELYAVKVLGASGSGSVSSIAQGLEWAGNNGMHVANLSLGSPSPSATLEQAVNSATSRGVLVVAASGNSGAGSISYPARYANAMAVGATDQNNNRASFSQYGAGLDIVAPGVNVQSTYPGSTYASLNGTSMATPHVAGAAALVKQKNPSWSNVQIRNHLKNTATSLGSTNLYGSGLVNAEAATR
As to B7, the Tm (Lederbergia lenta, pH 8.8, Thermal, CD, Tris buffer 100 mM, reversible: No) is 77.2 °C and 79.2 °C; the midpoint of thermal melting (Tm) (Lederbergia lenta, pH 9, Thermal, DSC, boric acid 100 mM, CaCl2 2 mM) is 72.7 °C and 75.5 °C.
